Measurements as given in article PMC6079011, “Salvage of the 5-deoxyribose byproduct of radical SAM enzymes” (Nature Communications, 2018).

Key:
DrdA (aldolase) = DrdA (aldolase) (Bacillus thuringiensis, UniProt P0DTQ0); conditions: tag-free protein, Mn2+ site, co-crystallised with 20 equivalents DHAP, pH 7.5
[1] = biological target: B. thuringiensis 5-deoxyribose disposal isomerase DrdI, His6-tagged (Bacillus thuringiensis HD73-20 (BGSC 4D22)); experiment: SEC; native molecular mass estimated on a Superdex 200 column, eluted with 50 mM HEPES-KOH, 50 mM KCl, pH 7.5, 10% glycerol
DEP1 (AtDEP1) = biological target: T1, DEP1 (AtDEP1) (Arabidopsis thaliana, UniProt Q9FN41); experiment: coupled glycerol-3-phosphate dehydrogenase NADH assay; type: biochemical; conditions: aldol cleavage, 500 µM dRu1P, pH 8.2, 21 °C
T1 construct: gene At5g53850; C-terminal His6-tag, from cDNA clone, expressed in E. coli BL21 CodonPlus (DE3)-RIPL; class II aldolase fused to HAD phosphatase domain
T1 sequence (Q9FN41 2-507): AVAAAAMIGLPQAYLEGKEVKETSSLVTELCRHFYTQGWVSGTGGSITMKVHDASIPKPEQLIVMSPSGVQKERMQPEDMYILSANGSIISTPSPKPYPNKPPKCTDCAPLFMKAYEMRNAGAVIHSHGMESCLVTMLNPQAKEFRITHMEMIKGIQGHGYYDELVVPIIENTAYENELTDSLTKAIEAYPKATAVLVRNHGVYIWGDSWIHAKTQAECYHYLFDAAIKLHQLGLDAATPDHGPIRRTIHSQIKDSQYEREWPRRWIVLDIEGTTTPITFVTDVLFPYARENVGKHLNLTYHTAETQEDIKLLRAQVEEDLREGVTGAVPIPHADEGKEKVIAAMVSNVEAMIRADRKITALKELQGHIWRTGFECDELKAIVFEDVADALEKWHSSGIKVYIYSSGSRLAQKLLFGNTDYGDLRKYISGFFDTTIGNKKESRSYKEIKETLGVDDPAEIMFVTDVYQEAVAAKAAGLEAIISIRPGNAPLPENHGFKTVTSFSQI

[2] = substrate: Nc1ncnc2c1ncn2[C@@H]1O[C@H](COP(=O)(O)OP(=O)(O)OP(=O)(O)O)[C@@H](O)[C@H]1O; experiment: coupled pyruvate kinase/lactate dehydrogenase NADH assay; type: biochemical, Bacillus thuringiensis; conditions: co-substrate 5-deoxyribose (500 µM), Mg2+, pH 8.0, 21 °C
Excerpt: coupled pyruvate kinase/lactate dehydrogenase NADH assay on DrdK (kinase)

[3] = biological target: the molecule itself; experiment: SEC; native molecular mass estimated on a Superdex 200 column, eluted with 50 mM HEPES-KOH, 50 mM KCl, pH 7.5, 10% glycerol
[4] = biological target: the molecule itself; experiment: crystal structure; X-ray, 1.55 Å, space group P42(1)2, one monomer per asymmetric unit; crystals from 200 mM NaCl, 28% PEG-3350, 100 mM HEPES-KOH pH 7.5, 20 °C
[5] = substrate: C[C@H]1O[C@H](OP(=O)(O)O)[C@H](O)[C@@H]1O; experiment: coupled DrdA/glycerol-3-phosphate dehydrogenase NADH assay; type: biochemical, Bacillus thuringiensis; conditions: pH 8.0, 21 °C
Excerpt: coupled DrdA/glycerol-3-phosphate dehydrogenase NADH assay on DrdI (isomerase)

O=C(CO)COP(=O)(O)O [dihydroxyacetone phosphate]
X-ray crystal structure of complex (DrdA (aldolase)): we solved the co-complex structure of DHAP bound to DrdA

B. thuringiensis 5-deoxyribose disposal isomerase DrdI, His6-tagged (enzyme)
stoichiometry N [1]: 2

C[C@@H](O)[C@@H](O)C(=O)COP(=O)(O)O [5-deoxyribulose 1-phosphate]
coupled glycerol-3-phosphate dehydrogenase NADH assay (DEP1 (AtDEP1)): Recombinant DEP1 showed aldolase activity towards 5-deoxyribulose-1-phosphate

B1: B. thuringiensis 5-deoxyribose disposal kinase DrdK, His6-tagged (enzyme, UniProt P0DTQ2 1-409, looked up)
chain: MSKFTKYFLMEASDVIAYVKEKLSKFEHAKGLKCKEIGDGNLNYVFRVWDKKENMSVIVKQAGDTARISDEFKLSTNRIRIESDVLQLENELAPGLVPKVYLFDSVMNCCVMEDLSNHTILRTALINHQIFPQLADDLTTFMVNTLLLTSDVVMNHKEKKELVKNYINPELCEITEDLVYSEPFTNHNKRNELFPLNEGWIREHIYSDKELRMEVAKRKFSFMTNAQALLHGDLHTGSVFVRDDSTKVIDPEFAFYGPMGYDVGNVMANLMFAWVNADATMPPGAEKDTYMDWLQTTMVEVIDLFKKKFLDAWDIHVTEIMAKEEGFNEVYLQSVLEDTAAVTGLELIRRIVGLAKVKDITCIENEEARARAEQICLKVAKSFILRANQYRTGRSFVETLKEQSMHYAE
notes: Cloned into pET28b (XbaI/XhoI amplicon into NheI/XhoI); No step that removes the tag is described; also called 5-deoxyribose kinase; source: E. coli BL21 CodonPlus (DE3)-RIPL, purified (Ni-NTA)
Km [2]: 216 ± 63 µM
kcat [2]: 17.1 ± 2.5 s⁻¹
kcat/Km [2]: 79000 ± 26000 M⁻¹ s⁻¹
stoichiometry N [3]: 2

B2: B. thuringiensis aldolase DrdA, tag-free variant (enzyme)
chain: MLLQKEREEIVAYGKKMISSGLTKGTGGNISIFNREQGLVAISPSGLEYYETKPEDVVILNLDGEVIEGERKPSSELDMHLIYYRKREDINALVHTHSPYAKTIASLGWELPAVSYLIAFAGPNVRCAPYETFGTKQLADAAFEGMIDRRAVLLANHGLIAGANNIKMAFTVAEEIEFCAQIYYQTKSIGEPKLLPEDEMENLAKKFEGYGQQ
notes: also called tag-free version; His-tag-free protein; source: E. coli BL21(DE3), purified (ammonium sulfate precipitation, MonoQ anion exchange, Superdex 200 SEC)
stoichiometry N [4]: 4

B3: DrdI (isomerase) (Bacillus thuringiensis serovar kurstaki str. HD73) (protein)
chain: MMEEQLIPIQWKDDALVLLDQTLLPNEIVYESFKTAESVWDAIQVMKVRGAPVIGVSAAYGVYLGVKEFAESTEEGFMDEVRKVCTYLATSRPTAVNLFWALERMESVAADNIHLSISQLKDRLLEEAKEIHREDEEINRQIGEHALTLFHDGMGVLTHCNAGALATTKYGTATAPMYLAKEKGWDLKIFSDETRPRLQGSTLTALELQRAGIDVTVITDNMAAMVMSQGKIDAVIVGCDRVAANGDIANKIGTLGVSILAKYYNIPFYVAAPTPTIDLKTPTGKEIPIEERDASEVINRFGQYSAPKESKVYNPAFDVTPHENVTAIITEKGIVKAPFTENLKKIFQ
notes: full length, N-terminal His6-tag with short linker, expressed in E. coli BL21 CodonPlus (DE3)-RIPL; dimer
Km [5]: 22 ± 7 × 10^3 µM
kcat [5]: 3.5 ± 0.7 s⁻¹
kcat/Km [5]: 160 ± 60 M⁻¹ s⁻¹
